Measured values published in publication PMC4991794.

Biological target: T1, SenRc (His-tagged response regulator) (Streptomyces coelicolor A3(2)) (UniProt Q9KXW5)
T1 sequence: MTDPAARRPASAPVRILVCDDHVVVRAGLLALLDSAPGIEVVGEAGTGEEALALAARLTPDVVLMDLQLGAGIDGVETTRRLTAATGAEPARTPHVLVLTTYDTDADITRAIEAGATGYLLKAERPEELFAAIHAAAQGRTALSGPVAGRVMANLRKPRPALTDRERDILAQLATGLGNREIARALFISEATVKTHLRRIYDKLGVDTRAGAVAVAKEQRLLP
Test: EMSA
Conditions: 10 mM Tris-HCl pH 7.5, 5% glycerol, 40 mM KCl, 1 mM MgCl2, 2 mM DTT, 10 ug/ml BSA; 30 C, 15 min; 30 ul with 20 ng or 25 ng (Methods) DNA; 7% …

Sequence | binding
CACCGGATACCTGTTGAAGGCCGAACGCCCCGAGGAGCTGTTCGCGGCCATCCACGCCGCCGCCCAGGGCCGTACGGCACTGTCCGGGCCGGTCGCCGGCCGGGTCATGGCCAACCTGCGCAAGCCGCGCCCCGCCCTCACCGACCGCGAGCGCGACATCCTGGCCCAGCTCGCCACCGGGCTCGGCAACCGGGAGATCGCCCGCGCCCTGTTCATCAG (double strand) [in-senRc] | no binding
CACGTCGACCTCGGCCGCATGTCCAGCGCCATCTGTCCGGGCCGCTGAGAGCACTCTCCAGCACCTCCGGATTCCCCGCATTCACCTCGCTCCCGCGCAATGACGCGCACGCGTGTCTCACGTATGCCCACGTAGTGCCATGCGCCATGCGCGCAGGTCAGAGCCGTTTCCACCTGTCTCCAAAGGACGTGTCACACCATGGCCGCCACTC (double strand) [up-SCO6102] | binds
CTCGTACGTCCGTTTCGGGGGCTCGAAGACGGCTTCGCGCCCCCCGCCGTGCCCCCACGCTTACACGTTCCGGCCTGTACGCGTCCGTTTCCGGCACCCCAAATGAACCGTCCCTGGCTCCAAGGTGAACTCTGGGCGACGAGTGTTCGAGGTCGCACCCGGATGGCTGGGGCCGGACGGTTCGCCGTGCCTAACCTGGAGACATGGACGTGAAC (double strand) [up-SCO4229] | binds
GAAAGCATGGGTGTTAAAGTCGTGTGCATGAAGCAAGCAGCCGCGCCCACCACACCACAGCGCCTCGCGCTCGTGGCGCGCCTGCACGTGGACCTCTGCCGGTGCGCGTCCGCGAACTGTCGCCCCTGACGTTCCCCCCTCACCAGTCGTCCCCACGTCAGCTCAGCGCGTCCCATCCCGCGTCCCGTCCCCCTACGGAGCATGTCCGTGTG (double strand) [up-SCO4498] | binds
GAGGAAGCCCGGTGCGAATCCGGCGCGGTCCCGCCACTGTGACCGGGGACAGGATCCCCGGGAGCCAGGAACTCTCGCCGCCGTGCTCTTCGAACCAGGGCGCGGACACCCTGAGTGAGGACCTATCGCCATGCGCGGCTGCCGTTCCGGGCTCACCAGCGACACGCTTCGACTTCCCCTTCCCACGGCCGGTTGAGCCGTGCGTGCC (double strand) [up-SCO1847] | binds
GAGTGGCGGCCATGGTGTGACACGTCCTTTGGAGACAGGTGGAAACGGCTCTGACCTGCGCGCATGGCGCATGGCACTACGTGGGCATACGTGAGACACGCGTGCGCGTCATTGCGCGGGAGCGAGGTGAATGCGGGGAATCCGGAGGTGCTGGAGAGTGCTCTCTTCAAGCTTGACAGATGGCGCTGGACATGCGGCCGAGGTCGACGTG (double strand) [up-SCO6102*] | no binding
GGCACGTGCGCGCACGCCTGTCCAGTCCGAGGACCTGCCGACAGTGCGCCCGGCCGCCCTGGCCCGGGTGCCATGACGTCCGGGCCTCGCGGAGTGGGCCGGTGGACGCGACGCCGCGTGCGCTCGTGAGCTGCCCCCTGCCCTCCCTCCGCCGGGCCCCGTGCCGAGCGAGGGAGTGCTCCACGTGACCATCGCGCCAG (double strand) [up-SCO5226] | binds
GTTCACGTCCATGTCTCCAGGTTAGGCTCGTCGAAGATCAAGCTTGAGCCATCCGGGTGGGACCTCGAACACTCGTCGCCCAGAGTTCACCTTGGAGCCAGGGACGGTTCATTTGGGGTGCCGGAAACGGACGCGTACAGGCCGGAACGTGTAAGCGTGGGGGCACGGCGGGGGGCGCGAAGCCGTCTTCGAGCCCCCGAAACGGACGTACGAG (double strand) [up-SCO4229*] | no binding
